Results: article PMC11286949

Tests used:
[1] = target: T1, Arc1p dNdM1 (Saccharomyces cerevisiae) (UniProt P46672); experiment: ITC; details: FP: 25 mM Tris-HCl pH 7.5, 2 mM MgCl2, 50 mM NaCl (Trbp111) or 150 mM NaCl (Arc1p), room temperature, ITC: 25 mM Tris-HCl pH 7.4, 150 mM NaCl
T1 sequence (P46672 whole entry, looked up): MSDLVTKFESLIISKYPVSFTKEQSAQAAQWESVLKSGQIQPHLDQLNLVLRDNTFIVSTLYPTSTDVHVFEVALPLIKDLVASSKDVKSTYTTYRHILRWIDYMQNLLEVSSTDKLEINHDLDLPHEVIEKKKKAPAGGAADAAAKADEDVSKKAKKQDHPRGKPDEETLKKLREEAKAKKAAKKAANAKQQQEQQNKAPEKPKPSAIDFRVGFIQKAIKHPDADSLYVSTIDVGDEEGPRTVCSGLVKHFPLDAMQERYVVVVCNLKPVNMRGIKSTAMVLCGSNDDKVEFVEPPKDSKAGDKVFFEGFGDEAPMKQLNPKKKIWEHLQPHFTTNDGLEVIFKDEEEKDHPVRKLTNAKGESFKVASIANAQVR

[2] = target: Aquifex aeolicus Trbp111 (tRNA-binding protein, 111 amino acids) (Aquifex aeolicus); experiment: crystal structure; unbound (apo) Trbp111, 2.3 Å, space group C222_(1); crystals grew from a mixture with tRNA^Ile, 0.2 M lithium sulfate, 0.1 M Tris-HCl pH 8.5, 25% PEG 3350
[3] = target: T2, Arc1p dN del1-131 (Saccharomyces cerevisiae) (UniProt P46672); experiment: ITC; details: FP: 25 mM Tris-HCl pH 7.5, 2 mM MgCl2, 50 mM NaCl (Trbp111) or 150 mM NaCl (Arc1p), room temperature, ITC: 25 mM Tris-HCl pH 7.4, 150 mM NaCl
T2 sequence: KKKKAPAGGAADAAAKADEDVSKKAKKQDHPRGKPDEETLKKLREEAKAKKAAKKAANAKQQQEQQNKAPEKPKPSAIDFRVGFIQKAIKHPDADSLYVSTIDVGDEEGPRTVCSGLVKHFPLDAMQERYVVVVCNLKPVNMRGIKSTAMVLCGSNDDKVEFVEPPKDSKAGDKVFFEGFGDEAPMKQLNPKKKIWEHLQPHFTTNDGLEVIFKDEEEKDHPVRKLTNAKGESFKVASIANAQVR

Substance: AGGCUUGUAGCUCAGGUGGUUAGAGCGCACCCCUGAUAAGGGUGAGGGCGGUGGUUCAAGUCCACUCAGGCCUACCA [tRNAIle WT]
- Kd [1]: 2.55 µM

Substance: Aquifex aeolicus Trbp111 (tRNA-binding protein, 111 amino acids) (natural protein)
- stoichiometry N [2]: 2

Substance: tRNAIle G18C/G19C
- Kd [3]: 3.33 µM
